Measurements: US20240116985A1 (published 2024)
Starred links: 1 amine or outer side, 2 acyl side, 3 side chain; linkers in the order of their positions; H or OH if unused. Positions of bridges follow the written chain, without caps; N, C: chain ends. Non-standard residues stand in square brackets, D forms with d. Primed or numbered codes have the meaning given here. B5(17) = 2,2-bis(4-pentenyl)glycine = 2-amino-2-(pent-4-en-1-yl)hept-6-enoic acid, stitching residue, C=CCCCC(CCCC=C)(N[*:1])C(=O)[*:2]; B5(18) = 2,2-bis(4-pentenyl)glycine (2-amino-2-(pent-4-en-1-yl)hept-6-enoic acid), stitching residue, C=CCCCC(CCCC=C)(N[*:1])C(=O)[*:2]; B5(4) = 2,2-bis(4-pentenyl)glycine = 2-amino-2-(pent-4-en-1-yl)hept-6-enoic acid (stitching residue), C=CCCCC(CCCC=C)(N[*:1])C(=O)[*:2]; 6F1NapA = 2-amino-3-(6-fluoronaphthalen-1-yl)propanoic acid, O=C([C@H](Cc1cccc2cc(F)ccc12)N[*:1])[*:2]; B5(3) = 2,2-bis(4-pentenyl)glycine (stitching residue), C=CCCCC(CCCC=C)(N[*:1])C(=O)[*:2]; B5 = 2-amino-2-(pent-4-en-1-yl)hept-6-enoic acid, C=CCCCC(CCCC=C)(N[*:1])C(=O)[*:2]; Phe(F5) = N[C@@H](Cc1c(F)c(F)c(F)c(F)c1F)C(=O)O; Phe(3,4-F2) = N[C@@H](Cc1ccc(F)c(F)c1)C(=O)O; Phe(3-F) = N[C@@H](Cc1cccc(F)c1)C(=O)O; Phe(3-Me) = Cc1cccc(C[C@H](N)C(=O)O)c1; Phe(4-F) = N[C@@H](Cc1ccc(F)cc1)C(=O)O; 2Nal = N[C@@H](Cc1ccc2ccccc2c1)C(=O)O; αAllylPro = C=CC[C@@]1(C(=O)O)CCCN1; hPhe = N[C@@H](CCc1ccccc1)C(=O)O; 3Pal = N[C@@H](Cc1cccnc1)C(=O)O; 4Pal = N[C@@H](Cc1ccncc1)C(=O)O; S8 = C=CCCCCCC[C@](C)(N)C(=O)O; Nle = CCCC[C@H](N)C(=O)O

T1: full-length beta-Catenin (Uniprot ID P35222) (Homo sapiens (Human), UniProt P35222 1-781)
T1 construct: The assay protocols call it full-length; also called B-Catenin; bCat
T1 sequence: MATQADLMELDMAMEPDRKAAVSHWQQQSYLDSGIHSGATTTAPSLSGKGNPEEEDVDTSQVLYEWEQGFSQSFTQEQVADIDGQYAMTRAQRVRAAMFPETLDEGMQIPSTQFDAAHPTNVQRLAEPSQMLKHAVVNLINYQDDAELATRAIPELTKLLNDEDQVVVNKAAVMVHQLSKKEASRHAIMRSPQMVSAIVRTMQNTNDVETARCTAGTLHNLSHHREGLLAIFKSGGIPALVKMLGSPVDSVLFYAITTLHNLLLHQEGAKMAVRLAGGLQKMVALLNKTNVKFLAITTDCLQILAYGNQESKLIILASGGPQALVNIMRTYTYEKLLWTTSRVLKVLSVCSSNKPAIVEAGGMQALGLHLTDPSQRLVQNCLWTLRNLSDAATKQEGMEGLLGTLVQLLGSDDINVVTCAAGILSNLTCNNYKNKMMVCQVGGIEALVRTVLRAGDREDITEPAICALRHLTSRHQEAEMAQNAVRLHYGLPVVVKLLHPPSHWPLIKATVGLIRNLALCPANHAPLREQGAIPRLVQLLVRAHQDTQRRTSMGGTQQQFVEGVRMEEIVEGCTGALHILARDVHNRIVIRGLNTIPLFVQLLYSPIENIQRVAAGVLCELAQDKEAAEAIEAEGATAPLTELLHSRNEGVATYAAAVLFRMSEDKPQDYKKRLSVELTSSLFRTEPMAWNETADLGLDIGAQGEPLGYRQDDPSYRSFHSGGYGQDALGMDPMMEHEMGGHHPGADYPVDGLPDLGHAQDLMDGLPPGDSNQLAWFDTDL

T2: full-length beta-Catenin (Uniprot ID P35222) (Homo sapiens (Human), UniProt P35222 1-781)
T2 construct: Used full-length in the FP and AlphaScreen assays; also called B-Catenin; bCat
T2 sequence: T1 sequence

B1: I-280 (peptide)
peptide: XEAXDDAAFVXFWQ
modifications: not fully specified; N-terminal Ac; PL3 at 1; B5 at 4; S8 at 11; C-terminal NH2; staples PL3(1)-B5(4) and B5(4)-S8(11) by olefin metathesis
notes: Stapled (stitched) peptide; also called Ac-PL3-Glu-Ala-B5-Asp-Asp-Ala-Ala-Phe-Val-S8-Phe-Trp-Gln-NH2
B2: I-281 (peptide)
peptide: XDAXEDAAFVXFWQ
modifications: not fully specified; N-terminal Ac; PL3 at 1; B5 at 4; S8 at 11; C-terminal NH2; staples PL3(1)-B5(4) and B5(4)-S8(11) by olefin metathesis
notes: Stapled (stitched) peptide; also called Ac-PL3-Asp-Ala-B5-Glu-Asp-Ala-Ala-Phe-Val-S8-Phe-Trp-Gln-NH2
B3: I-274 (peptide)
peptide: Ac-[αAllylPro]DA[B5(4)]DYAAFV[S8]FWQ-NH2
modifications: staple 1-4, 4-11
notes: Stapled (stitched) peptide; also called Ac-PL3-Asp-Ala-B5-Asp-Tyr-Ala-Ala-Phe-Val-S8-Phe-Trp-Gln-NH2
B4: I-258 (peptide)
peptide: Ac-[αAllylPro]DA[B5]D[Phe(4-F)]AAFV[S8]FWQ-NH2
modifications: staple 1-4, 4-11
notes: Stapled (stitched) peptide; also called Ac-PL3-Asp-Ala-B5-Asp-4FF-Ala-Ala-Phe-Val-S8-Phe-Trp-Gln-NH2
B5: I-259 (peptide)
peptide: Ac-[αAllylPro]DA[B5]D[Phe(3,4-F2)]AAFV[S8]FWQ-NH2
modifications: staple 1-4, 4-11
notes: Stapled (stitched) peptide; also called Ac-PL3-Asp-Ala-B5-Asp-34FF-Ala-Ala-Phe-Val-S8-Phe-Trp-Gln-NH2
B6: I-272 (peptide)
peptide: Ac-[αAllylPro]DA[B5(17)]D[4Pal]AAFV[S8]FWQ-NH2
modifications: staple 1-4, 4-11
notes: Stapled (stitched) peptide; also called Ac-PL3-Asp-Ala-B5-Asp-4PyrA-Ala-Ala-Phe-Val-S8-Phe-Trp-Gln-NH2
B7: I-256 (peptide)
peptide: Ac-[αAllylPro]DA[B5(4)]D[6F1NapA]AAFV[S8]FWQ-NH2
modifications: staple 1-4, 4-11
notes: Stapled (stitched) peptide; also called Ac-PL3-Asp-Ala-B5-Asp-6F1NapA-Ala-Ala-Phe-Val-S8-Phe-Trp-Gln-NH2
B8: I-196 (peptide)
peptide: Ac-[αAllylPro]DA[B5(4)][hPhe]EAAFV[S8]FWQ-NH2
modifications: staple 1-4, 4-11
notes: Stapled peptide composition; this is the earlier-eluting isomer composition
B9: I-197 (peptide)
peptide: Ac-[αAllylPro]DA[B5(4)][hPhe]EAAFV[S8]FWQ-NH2
modifications: staple 1-4, 4-11
notes: Stapled peptide composition; this is the later-eluting isomer composition

Target: T1, full-length beta-Catenin (Uniprot ID …)
Test: AlphaScreen competition; full-length beta-catenin with biotin-labelled TCF4 10-53 peptide as competitor
Experimental: (§1) Equal volume of the titrated peptide was added to the plate and incubated for 15 minutes at 20° C. Then 4 uL of donor and 4 uL acceptor beads at 10 ug/mL were added to the plate, for a 16 uL reaction pool and protected from light for 60 minutes at 20° C. prior to read. Reads were performed on a CLARIOstar plate reader (BMG Labtech) in duplicate, and data were fitted to a 1:1 binding model with hill slope using an in-house script. All provided concentrations are final concentrations.

**Q.** How did the EC50 turn out when B1 was run?
**A.** The EC50 was 3.05 µM.

**Q.** B2 was tested. Which EC50 did it give?
**A.** The EC50 was 6.26 µM.

**Q.** For B3, which EC50 is on record?
**A.** The EC50 was 2.35 µM.

**Q.** B4 was tested. Which EC50 did it give?
**A.** Its EC50 is 2.93 µM.

**Q.** Which EC50 does the source give for B5 here?
**A.** Its EC50 is 4.18 µM.

**Q.** B6 was tested. Which EC50 did it give?
**A.** The EC50 was 1.01 µM.

**Q.** With B7 as the binder, how does the EC50 read?
**A.** The EC50 was 9.21 µM.

Target: T2, full-length beta-Catenin (Uniprot ID …)
Test: AlphaScreen (nickel chelate) competition; full-length beta-catenin + biotin-TCF4(10-53) probe as competitor; peptide titrated
Experimental: as §1

**Q.** With Ac-[αAllylPro]DA[B5(4)]DEAAFV[S8][Phe(F5)]WQ-NH2 (staple 1-4, 4-11, Stapled peptide composition) [I-183] as the binder, how does the EC50 read?
**A.** The EC50 was 3.77 µM.

**Q.** Which EC50 does the source give for Ac-[αAllylPro]DA[B5(4)]D[hPhe]AAFV[S8]FWQ-NH2 (staple 1-4, 4-11, Stapled peptide composition) [I-195] here?
**A.** The EC50 was 2.18 µM.

**Q.** How did the EC50 turn out when B8 was run?
**A.** Its EC50 is 5.51 µM.

**Q.** How did the EC50 turn out when Ac-[αAllylPro][Phe(3-Me)]A[B5(3)]DEAAFV[S8]FWQ-NH2 (staple 1-4, 4-11, Stapled peptide composition) [I-203] was run?
**A.** The EC50 was 5.99 µM.

**Q.** For B9, which EC50 is on record?
**A.** The EC50 was 6.15 µM.

**Q.** How did the EC50 turn out when Ac-[αAllylPro]DA[B5(4)][3Pal]EAAFV[S8]FWQ-NH2 (staple 1-4, 4-11, Stapled peptide composition) [I-213] was run?
**A.** Its EC50 is 8.05 µM.

**Q.** Ac-[αAllylPro]FA[B5(3)]DEAAFV[S8]FWQ-NH2 (staple 1-4, 4-11, Stapled peptide composition) [I-201] was tested. Which EC50 did it give?
**A.** Its EC50 is 6.16 µM.

**Q.** Ac-[αAllylPro]DA[B5(4)]HEAAFV[S8]FWQ-NH2 (staple 1-4, 4-11, Stapled peptide composition) [I-206] was tested. Which EC50 did it give?
**A.** The EC50 was 2.14 µM.

**Q.** With Ac-[αAllylPro][Phe(3-F)]A[B5(3)]DEAAFV[S8]FWQ-NH2 (staple 1-4, 4-11, Stapled peptide composition) [I-204] as the binder, how does the EC50 read?
**A.** The EC50 was 7.28 µM.

**Q.** For Ac-[αAllylPro]YA[B5(3)]DEAAFV[S8]FWQ-NH2 (staple 1-4, 4-11, Stapled peptide composition) [I-202], which EC50 is on record?
**A.** The EC50 was 7.88 µM.

**Q.** Ac-[αAllylPro]DA[B5(18)]DEAA[Phe(3,4-F2)]A[S8]F[2Nal]A-NH2 (staple 1-4, 4-11, Stapled peptide composition) [I-185] was tested. Which EC50 did it give?
**A.** Its EC50 is 2.66 µM.

**Q.** Ac-[αAllylPro]DA[B5(3)][Nle]EAAFV[S8]FWQ-NH2 (staple 1-4, 4-11, Stapled peptide composition) [I-205] was tested. Which EC50 did it give?
**A.** The EC50 was ≥ 10 µM.
